{
  "source": "patent US20250074980A1",
  "about": "(BRIGHAM AND WOMEN S HOSPITAL, published 2025)",
  "key": {"His-tagged CEACAM1 [1]": {"biological_target": "T1, His-tagged CEACAM1 (human, UniProt P13688 35-428)", "T1 construct": "45 kDa SPR analyte; also called CEACAM1-HIS; CEACAM1 analyte", "T1 sequence": "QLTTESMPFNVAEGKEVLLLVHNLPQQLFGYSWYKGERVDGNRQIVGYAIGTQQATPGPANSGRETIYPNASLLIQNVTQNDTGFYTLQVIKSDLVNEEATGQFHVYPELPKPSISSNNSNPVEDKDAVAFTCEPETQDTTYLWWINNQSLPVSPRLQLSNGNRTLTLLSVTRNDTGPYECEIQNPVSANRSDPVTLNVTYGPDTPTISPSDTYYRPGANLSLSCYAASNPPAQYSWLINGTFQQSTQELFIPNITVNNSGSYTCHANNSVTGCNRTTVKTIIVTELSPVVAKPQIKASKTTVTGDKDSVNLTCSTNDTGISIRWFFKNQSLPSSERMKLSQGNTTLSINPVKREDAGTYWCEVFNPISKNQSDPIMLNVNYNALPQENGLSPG", "assay": "SPR single-cycle, IgG captured", "how_it_was_run": "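Biacore T200 single-cycle kinetics at 25° C in HBS-P+ (pH 7.4): antibodies (purified or HEK EBNA supernatant, 1 μg/ml) captured on Protein A to ~75 RU, His-tagged CEACAM1 analyte at 3.125–50 nM (5-point 2-fold) at 50 μl/min without regeneration. Reference channel Fc1 subtracted.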"}, "His-tagged CEACAM1 [2]": {"biological_target": "T1, His-tagged CEACAM1", "assay": "SPR single-cycle, supernatant IgG captured", "how_it_was_run": "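Humanized, affinity-matured IgGs from crude supernatant (0.5 μg/ml in HBS-P+) captured on Protein A to ~100 RU. Single-cycle kinetics: CEACAM1 at three concentrations, 70–280 nM two-fold, 80 μl/min, 80 s association each, 150 s dissociation. Reference-channel and blank-run subtraction applied.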"}, "GST-CEACAM1": {"biological_target": "T2, GST-CEACAM1 (human, UniProt P13688 35-141, limits assumed)", "T2 construct": "also called human CEACAM1-GST protein", "T2 sequence": "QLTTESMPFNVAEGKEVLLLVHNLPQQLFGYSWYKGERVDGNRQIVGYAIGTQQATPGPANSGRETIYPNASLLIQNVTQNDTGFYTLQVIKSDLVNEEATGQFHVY", "assay": "competition ELISA: binding of human CEACAM1-GST (37.5 µg/ml) to human CEACAM1 IgV domain tagless protein (1 µg/ml), anti-GST detection, OD 450 nm", "method": "The ability of the CEACAM1 antibodies to block CEACAM1 homodimerization was tested. […] In addition, IgG4 antibody was used as a control (0-1000 nM). Goat polyclonal anti-GST-HSP antibody from Abcam (1:2000) was used and assays were developed by addition of TMB solution (Life technologies). OD values were read at 450 nm on a plate reader. Data was plotted in a Graphpad and best-fit IC-50 values were determined."}},
  "data": [
    {"binder": "chimeric antibody VH0/Vκ0 (antibody, IgG4, V domains shown, IgG4 (S241P), kappa; also called VH0/Vκ0 (control); Chimeric VH0/Vκ0) VH: EVQLVESGGDLVKPGGSLKLACAASGFIFSSHGMSWVRQTPDKRLEWVATISSGGTYTYYPDSVKGRFTISRDNDKNTLYLQMNSLKSEDTAMYYCARHDFDYDAAWFAYWGQGTLVTVSS VL: QIVLTQSPALMSASPGVKVTMTCSANSSVSYMYWYRQKPRSSPKPWIYLTSNLASGVPARFSGSGSGTSYSLTISSMEAEDAATYYCQQWSSNPPTFGSGTKLEIK", "values": [
      {"measurement": "Kd", "setting": "His-tagged CEACAM1 [1]", "result": 0.042, "unit": "µM"},
      {"measurement": "relative KD to VH0/Vκ0", "setting": "His-tagged CEACAM1 [1]", "result": 1}
    ]},
    {"binder": "VH1/Vκ8 S29A (antibody, IgG4, V domains shown, IgG4 (S241P), kappa; also called Parent; Parent (VH1/Vκ8 S29A)) VH: EVQLLESGGGLVQPGGSLRLSCAASGFIFSSHGMSWVRQAPGKGLEWVATISSGGTYTYYPDSVKGRFTISRDNSKNTLYLQMNSLKAEDTAMYYCARHDFDYDAAWFAYWGQGTLVTVSS VL: EIVLTQSPATLSLSPGERATLSCRANSAVSYMYWYQQKPGQAPRPWIYLTSNRATGVPARFSGSGSGTDYTLTISSLEPEDFAVYYCQQWSSNPPTFGQGTKLEIK", "values": [
      {"measurement": "Kd", "setting": "His-tagged CEACAM1 [2]", "result": 0.56, "unit": "µM"},
      {"measurement": "koff", "setting": "His-tagged CEACAM1 [2]", "result": 0.053, "unit": "s⁻¹"},
      {"measurement": "kon", "setting": "His-tagged CEACAM1 [2]", "result": 94000, "unit": "M⁻¹ s⁻¹"},
      {"measurement": "relative KD to parent", "setting": "His-tagged CEACAM1 [2]", "result": 1}
    ]},
    {"binder": "CP08H03/Vκ8 S29A (antibody, IgG4, V domains shown, IgG4 (S241P), kappa; also called CP08_H03/Parent VL; CP08_H03/Parental) VH: EVQLLESGGGLVQPGGSLRLSCAASGFIFSSHGMSWVRQAPGKGLEWVATISSGGTYTYYPDSVKGRFTISRDNSKNTLYLQMNSLKAEDTAMYYCARHDFDYFPYWFAHWGQGTLVTVSS VL: EIVLTQSPATLSLSPGERATLSCRANSAVSYMYWYQQKPGQAPRPWIYLTSNRATGVPARFSGSGSGTDYTLTISSLEPEDFAVYYCQQWSSNPPTFGQGTKLEIK", "values": [
      {"measurement": "IC50", "setting": "GST-CEACAM1", "result": 0.00211, "unit": "µM"}
    ]}
  ]
}
